Results as given in patent publication US20250281611A1 (BIOSCEPTRE AUST, published 2025).
Blank lines part the entries; values can stand above or below the binder they belong to.

Tests used:
[1] = molecular target: T1, nfP2X7 CAR 1; assay: flow cytometry, CAR T cells, anti-His-FITC, EGFR+ MFI over background 0.4
T1 construct: Expressed on T cells with truncated EGFR as marker gene; also called anti-nfP2X7 receptor CAR 1; nfP2X7 targeted CAR on EGFR+ T cells
Method in brief: (§1)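 CAR T cells incubated with BRiDGE variants at saturating concentrations; bound BRiDGE detected with anti-His-FITC by flow cytometry. EGFR marks CAR expression. Value is median fluorescence intensity on EGFR+ (CAR+) cells divided by that on EGFR− (CAR−) cells.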

[2] = molecular target: T1, nfP2X7 CAR 1; assay: flow cytometry, nfP2X7 CAR T cells (EGFR+), anti-His-FITC detection
[3] = molecular target: T2, CD33 (UniProt P20138 18-364, limits assumed); assay: flow cytometry, MOLM-13 cells, anti-His-FITC detection, ratio to no bridge
T2 construct: whole, on cells; also called Siglec-3; CD33 on MOLM-13 cells
T2 sequence (P20138 18-364 limits assumed): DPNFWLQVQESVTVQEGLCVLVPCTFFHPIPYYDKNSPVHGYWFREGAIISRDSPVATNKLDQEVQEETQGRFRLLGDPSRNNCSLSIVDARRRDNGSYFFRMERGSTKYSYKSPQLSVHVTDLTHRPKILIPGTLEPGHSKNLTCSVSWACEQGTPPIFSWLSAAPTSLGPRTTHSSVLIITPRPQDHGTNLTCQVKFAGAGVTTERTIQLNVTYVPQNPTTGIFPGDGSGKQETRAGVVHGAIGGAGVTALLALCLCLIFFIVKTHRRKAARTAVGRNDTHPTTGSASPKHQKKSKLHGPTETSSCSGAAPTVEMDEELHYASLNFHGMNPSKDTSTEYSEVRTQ
Protocol: (§2) MOLM-13 cells were incubated with different CD33 BRIDGE variants at saturating concentrations. […] The MFI intensity correlates with the number of secondary antibodies bound to the CD33 BRIDGE variants that are only detected if they are bound to the MOLM-13 cells. MFI: median fluorescence intensity. BLItz: Bio-Layer interferometry (BLI) technology using HIS-tag identification tips. […] The higher the MFIR, the stronger the binding.

[4] = molecular target: T1, nfP2X7 CAR 1; assay: flow cytometry, CAR T cells, anti-His-FITC, EGFR+ over EGFR- cells
Method in brief: as §1

[5] = molecular target: T2, CD33; assay: flow cytometry, MOLM-13 cells, anti-His-FITC detection
Protocol: as §2

HisTag MFI Ratio (background 0.4) [1]: 3.4
MFI HisTag FITC in EGFR+ Population [2]: 1.34
MFIR HisTag FITC [3]: 10.6
HisTag MFI Ratio of EGFR+/EGFR- [4]: 3
MFI HisTag FITC [5]: 7.09
B1: CD33 BRIDGE variant B31 (Fab)
light: DFPGHNYTTRNILPGLNITSEPKSSDKTHTGGGGSDIQMTQSPSSLSASVGDRVTITCRASESVDNYGISFMNWFQQKPGKAPKLLIYAASNQGSGVPSRFSGSGSGTDFTLTISSLQPDDFATYYCQQSKEVPWTFGQGTKVEIKRTVAAPSVFIFPPSDEQLKSGTASVVCLLNNFYPREAKVQWKVDNALQSGNSQESVTEQDSKDSTYSLSSTLTLSKADYEKHKVYACEVTHQGLSSPVTKSFNRGECHHHHHH
heavy: QVQLVQSGAEVKKPGSSVKVSCKASGYTFTDYNMHWVRQAPGQGLEWIGYIYPYNGGTGYNQKFKSKATITADESTNTAYMELSSLRSEDTAVYYCARGRPAMDYWGQGTLVTVSSASTKGPSVFPLAPSSKSTSGGTAALGCLVKDYFPEPVTVSWNSGALTSGVHTFPAVLQSSGLYSLSSVVTVPSSSLGTQTYICNVNHKPSNTKVDKKVEPKSCHHHHHH
notes: Lintuzumab-based Fab bridging molecule

HisTag MFI Ratio (background 0.4) [1]: 5.4
MFI HisTag FITC in EGFR+ Population [2]: 2.15
MFIR HisTag FITC [3]: 9.88
HisTag MFI Ratio of EGFR+/EGFR- [4]: 3.8
MFI HisTag FITC [5]: 6.62
B2: CD33 BRIDGE variant B35 (Fab)
light: DFPGHNYTTRNILPGLNITSTFHKTSGSGKGSEPKSSDKTHTGGGGSDIQMTQSPSSLSASVGDRVTITCRASESVDNYGISFMNWFQQKPGKAPKLLIYAASNQGSGVPSRFSGSGSGTDFTLTISSLQPDDFATYYCQQSKEVPWTFGQGTKVEIKRTVAAPSVFIFPPSDEQLKSGTASVVCLLNNFYPREAKVQWKVDNALQSGNSQESVTEQDSKDSTYSLSSTLTLSKADYEKHKVYACEVTHQGLSSPVTKSFNRGECHHHHHH
heavy: B1 heavy
notes: as for B1

HisTag MFI Ratio (background 0.4) [1]: 3.3
MFI HisTag FITC in EGFR+ Population [2]: 1.31
MFIR HisTag FITC [3]: 10.4
HisTag MFI Ratio of EGFR+/EGFR- [4]: 3
MFI HisTag FITC [5]: 6.98
B3: CD33 BRIDGE variant B34 (Fab)
light: DFPGHNYTTRNILPGLNITSTFHKTSGSGKEPKSSDKTHTGGGGSDIQMTQSPSSLSASVGDRVTITCRASESVDNYGISFMNWFQQKPGKAPKLLIYAASNQGSGVPSRFSGSGSGTDFTLTISSLQPDDFATYYCQQSKEVPWTFGQGTKVEIKRTVAAPSVFIFPPSDEQLKSGTASVVCLLNNFYPREAKVQWKVDNALQSGNSQESVTEQDSKDSTYSLSSTLTLSKADYEKHKVYACEVTHQGLSSPVTKSFNRGECHHHHHH
heavy: B1 heavy
notes: as for B1

HisTag MFI Ratio (background 0.4) [1]: 4.2
MFI HisTag FITC in EGFR+ Population [2]: 1.69
MFIR HisTag FITC [3]: 10.4
HisTag MFI Ratio of EGFR+/EGFR- [4]: 3.4
MFI HisTag FITC [5]: 6.96
B4: CD33 BRIDGE variant B33 (Fab)
light: DFPGHNYTTRNILPGLNITSGGGGSEPKSSDKTHTGGGGSDIQMTQSPSSLSASVGDRVTITCRASESVDNYGISFMNWFQQKPGKAPKLLIYAASNQGSGVPSRFSGSGSGTDFTLTISSLQPDDFATYYCQQSKEVPWTFGQGTKVEIKRTVAAPSVFIFPPSDEQLKSGTASVVCLLNNFYPREAKVQWKVDNALQSGNSQESVTEQDSKDSTYSLSSTLTLSKADYEKHKVYACEVTHQGLSSPVTKSFNRGECHHHHHH
heavy: B1 heavy
notes: as for B1

HisTag MFI Ratio (background 0.4) [1]: 4
MFI HisTag FITC in EGFR+ Population [2]: 1.59
MFIR HisTag FITC [3]: 9.99
HisTag MFI Ratio of EGFR+/EGFR- [4]: 3.3
MFI HisTag FITC [5]: 6.69
B5: CD33 BRIDGE variant B32 (Fab)
light: DFPGHNYTTRNILPGLNITSGSEPKSSDKTHTGGGGSDIQMTQSPSSLSASVGDRVTITCRASESVDNYGISFMNWFQQKPGKAPKLLIYAASNQGSGVPSRFSGSGSGTDFTLTISSLQPDDFATYYCQQSKEVPWTFGQGTKVEIKRTVAAPSVFIFPPSDEQLKSGTASVVCLLNNFYPREAKVQWKVDNALQSGNSQESVTEQDSKDSTYSLSSTLTLSKADYEKHKVYACEVTHQGLSSPVTKSFNRGECHHHHHH
heavy: B1 heavy
notes: as for B1
